Drawing on article PMC9918544, this text covers partition coefficient for 1 substance.

One assay deals with FSFG_(52×12) Mutant 1. In words: partitioning into the condensed FG phase (confocal laser scanning microscopy); FG particles of unlabelled FG domain in assay buffer (50 mM Tris/HCl, 5 mM DTT, 150 mM NaCl) mixed with fluorescent probe: 6 μM mCherry, 3 μM EGFP, 1 μM NTR or 1.5 μM NTR pre-incubated with 1 μM cargo; partition coefficient = signal in the centre of the particle / buffer; 21 °C.

A further assay deals with FSFG_(52×12) Mutant 2. The description is as above.

For “NTF2 (Nuclear transport factor 2), coupled with Alexa488 (from UniProt P61970 1-127) (natural protein)”, the partition coefficient in the assay with FSFG_(52×12) Mutant 1 and with FSFG_(52×12) Mutant 2 was 2000 each time.
